Article PMC10761686

Key:
[1] = molecular target: actin from rabbit skeletal muscle, as filaments (F-actin) capped at their barbed ends by gelsolin (rabbit) (UniProt P68135)
[2] = molecular target: actin from rabbit skeletal muscle, as filaments (F-actin) capped at their barbed ends by gelsolin (rabbit) (UniProt P68135); remark: listed apart in the source

tropomodulin 1 (TMOD1) with the patient variant p.R189W, purified recombinant human (from UniProt P28289-1 1-359) (natural protein)
capping activity against TMOD1^wt: inhibition of pyrene-actin polymerisation at pointed ends of long filaments (1:100 gelsolin to actin), without TPM1 (fold weaker than TMOD1^wt) [1]: 2
capping activity against TMOD1^wt: inhibition of pyrene-actin polymerisation at pointed ends of short filaments (1:10 gelsolin to actin), without TPM1 (fold weaker than TMOD1^wt) [1]: 2
inhibition of pyrene-actin depolymerisation from pointed ends against TMOD1^wt, long filaments (1:100 gelsolin to actin), without TPM1 (fold weaker than TMOD1^wt) [2]: 2
inhibition of pyrene-actin depolymerisation from pointed ends against TMOD1^wt, short filaments (1:10 gelsolin to actin), without TPM1 (fold weaker than TMOD1^wt) [2]: 5
